Measured values published in the supplement of paper PMC7877785.
± gives the uncertainty stated by the source.

Experiment: self-splicing fitness, log relative to wild type (ln ratio); higher = more splicing; Tetrahymena group I intron in knt gene, E. coli kanamycin selection, DiMSum; sequences stand for … in CUCUCU…GGAGGGAAAAGUUAUCAGGCAUGCACCUGGUAGCUAGUCUUUAAACCAAUAGAUUGCAUCGGUUUAAAAGGCAAGACCGUCAAAUUGCGGGAAAGGGGUCAACAGCCGUUCAGUACCAAGUCUCAGGGGAAACUUUGAGAUGGCCUUGCAAAGGGUAUGGUAAUAAGCUGACGGACAUGGUCCUAACCACGCAGCCAAGUCCUAAGUCAACAGAUCUUCUGUUGAUAUGGAUGCAGUUCACAGACUAAAUGUCGGUCGGGGAAGAUGUAUUCUUCUCAUAAGAUAUAGUCGGACCUCUCCUUAAUGGGAGCUAGCGGAUGAAGUGAUGCAACACUGGAGCCGCUGGGAACUAAUUUGUAUGCGAAAGUAUAUUGAUUAGUUUUGGAGUACUCGUGGUCG
In short: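 The eight P1ex-region nucleotides of an intron in the knt kanamycin-resistance gene on pET-22b(+) were all randomised and the library put into E. coli BL21(DE3). Six replicate transformations were grown overnight at 37°C or 30°C on LB agar with or without 25 μg/mL kanamycin, together with 100 μg/mL carbenicillin, 50 μM IPTG and 0.2% rhamnose. Colonies were pooled and amplicon-sequenced on an Illumina HiSeq 2500. Fitness from DiMSum is the error-weighted combination of wild-type-normalised replicate fold changes, kanamycin over none.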

Sequence | self-splicing fitness (ln) (37 °C) | self-splicing fitness (ln) (30 °C)
UCAUAGCAAUAUUACGAAAG | -1.84 ± 0.47 | 
UCAUAGCAAUAUUACGAAAU | -2.58 ± 0.28 | -2.86 ± 0.23
UCAUAGCAAUAUUACGACAG | -1.26 ± 0.15 | -1.49 ± 0.13
UCAUAGCAAUAUUACGAGUU | -1.56 ± 0.36 | -2.66 ± 0.34
UCAUAGCAAUAUUACGCCAU | -1.49 ± 0.33 | -3.49 ± 0.36
UCAUAGCAAUAUUACGCGAG | -0.957 ± 0.15 | -1.52 ± 0.15
UCAUAGCAAUAUUACGCUUA | -1.21 ± 0.26 | 
UCAUAGCAAUAUUACGGAUC | -2.38 ± 0.22 | -3.73 ± 0.28
UCAUAGCAAUAUUACGGCGA | -0.102 ± 0.083 | -0.178 ± 0.07
UCAUAGCAAUAUUACGGCGC |  | -2.63 ± 0.31
UCAUAGCAAUAUUACGGGGA | -0.546 ± 0.12 | -1.54 ± 0.1
UCAUAGCAAUAUUACGGUCU | -2.31 ± 0.14 | -3.49 ± 0.16
UCAUAGCAAUAUUACGGUUA | -0.36 ± 0.11 | -1.37 ± 0.14
UCAUAGCAAUAUUACGUAAU | -2.61 ± 0.28 | -3.87 ± 0.48
UCAUAGCAAUAUUACGUGUU | -1.57 ± 0.1 | -3.81 ± 0.14
UCAUAGCAAUAUUACGUUCU | -2.32 ± 0.21 | -2.79 ± 0.27
UCCAAGCAAUAUUACGAAAC | -2.95 ± 0.35 | -3.13 ± 0.22
UCCAAGCAAUAUUACGACAU | -2.31 ± 0.036 | -3.54 ± 0.021
UCCAAGCAAUAUUACGAUUA | -0.817 ± 0.11 | -0.942 ± 0.11
UCCAAGCAAUAUUACGCACC | -1.94 ± 0.21 | -4.36 ± 0.32
UCCAAGCAAUAUUACGCAGA | -0.571 ± 0.088 | -1.58 ± 0.12
UCCAAGCAAUAUUACGCAUU | -2.35 ± 0.23 | -4.05 ± 0.21
UCCAAGCAAUAUUACGCCAC | -1.13 ± 0.33 | 
UCCAAGCAAUAUUACGCCAG | -1.9 ± 0.28 | 
UCCAAGCAAUAUUACGCGAU | -2.24 ± 0.17 | -4.34 ± 0.21

Sequence | self-splicing fitness (ln) (37 °C) | self-splicing fitness (ln) (30 °C)
UCCAAGCAAUAUUACGCGCC | -2.31 ± 0.32 | -3.47 ± 0.27
UCCAAGCAAUAUUACGCUCG | -2.28 ± 0.49 | -4.74 ± 0.45
UCCAAGCAAUAUUACGCUCU | -1.75 ± 0.18 | -3.44 ± 0.28
UCCAAGCAAUAUUACGGAAU | -2.97 ± 0.33 | -3.72 ± 0.3
UCCAAGCAAUAUUACGGCCG | -1.41 ± 0.16 | -2.7 ± 0.2
UCCAAGCAAUAUUACGGCGA | 0.225 ± 0.086 | 0.214 ± 0.078
UCCAAGCAAUAUUACGUAAG | -2.37 ± 0.21 | -4.14 ± 0.3
UCCAAGCAAUAUUACGUACU | -2.54 ± 0.24 | -3.94 ± 0.39
UCCAAGCAAUAUUACGUAGU | -0.483 ± 0.091 | -1.27 ± 0.068
UCCAAGCAAUAUUACGUAUA | -1.29 ± 0.096 | -2.19 ± 0.094
UCCAAGCAAUAUUACGUCUA | -0.9 ± 0.11 | -2.26 ± 0.13
UCCAAGCAAUAUUACGUGCC | -2.28 ± 0.26 | -3.87 ± 0.36
UCCAAGCAAUAUUACGUGCU | -2.76 ± 0.22 | -3.49 ± 0.22
UCCAAGCAAUAUUACGUGUG | -1.75 ± 0.081 | -2.08 ± 0.066
UCCCAGCAAUAUUACGAAUC | -1.93 ± 0.3 | -2.49 ± 0.26
UCCCAGCAAUAUUACGAGUG | -1.79 ± 0.13 | -3.66 ± 0.18
UCCCAGCAAUAUUACGAUAC | -2.45 ± 0.44 | -2.17 ± 0.19
UCCCAGCAAUAUUACGAUCG | -2.79 ± 0.16 | -3.52 ± 0.3
UCCCAGCAAUAUUACGCAGA | -0.0561 ± 0.073 | -0.882 ± 0.06
UCCCAGCAAUAUUACGCCCU | -1.03 ± 0.21 | -2.07 ± 0.15
UCCCAGCAAUAUUACGCCGU | -2.27 ± 0.21 | -3.11 ± 0.22
UCCCAGCAAUAUUACGCCUG | -1.8 ± 0.23 | -3.13 ± 0.26
UCCCAGCAAUAUUACGCGGG | -3.36 ± 0.18 | -2.66 ± 0.12
UCCCAGCAAUAUUACGCUAG | -2.9 ± 0.34 | -3.45 ± 0.18
UCCCAGCAAUAUUACGGAAG | -2.88 ± 0.23 | -3.24 ± 0.12

Sequence | self-splicing fitness (ln) (37 °C) | self-splicing fitness (ln) (30 °C)
UCCCAGCAAUAUUACGGCGG | -2.21 ± 0.18 | -2.91 ± 0.16
UCCCAGCAAUAUUACGGUAU | -0.809 ± 0.08 | -1.24 ± 0.059
UCCCAGCAAUAUUACGGUUC | -1.8 ± 0.14 | -2.43 ± 0.11
UCCCAGCAAUAUUACGGUUG | -1.79 ± 0.15 | -2.97 ± 0.17
UCCCAGCAAUAUUACGUACA | -0.819 ± 0.1 | -1.92 ± 0.14
UCCCAGCAAUAUUACGUCUU | -2.76 ± 0.2 | -2.99 ± 0.14
UCCCAGCAAUAUUACGUGCA | -0.597 ± 0.078 | -0.634 ± 0.06
UCCGAGCAAUAUUACGAAUG | -2.94 ± 0.21 | -2.81 ± 0.17
UCCGAGCAAUAUUACGACUC | -2.87 ± 0.34 | -3.61 ± 0.21
UCCGAGCAAUAUUACGAGUC | -2.16 ± 0.22 | 
UCCGAGCAAUAUUACGAUAA | -2.41 ± 0.32 | -2 ± 0.22
UCCGAGCAAUAUUACGAUAG | -2.22 ± 0.2 | -3.72 ± 0.24
UCCGAGCAAUAUUACGAUCA | -1.26 ± 0.25 | 
UCCGAGCAAUAUUACGAUUU | -2.49 ± 0.44 | -3.56 ± 0.25
UCCGAGCAAUAUUACGCCAA | -2.4 ± 0.49 | 
UCCGAGCAAUAUUACGCGUA | -0.936 ± 0.11 | -1.14 ± 0.098
UCCGAGCAAUAUUACGCUAG | -2.75 ± 0.34 | -3.12 ± 0.31
UCCGAGCAAUAUUACGCUUU | -3.01 ± 0.47 | -2.64 ± 0.26
UCCGAGCAAUAUUACGGACG | -2.37 ± 0.25 | -3.59 ± 0.24
UCCGAGCAAUAUUACGGAGG | -2.65 ± 0.24 | -2.66 ± 0.16
UCCGAGCAAUAUUACGGCAU | -1.62 ± 0.097 | -2.13 ± 0.13
UCCGAGCAAUAUUACGGGGU | -2.45 ± 0.28 | -2.7 ± 0.2
UCCGAGCAAUAUUACGGUGU | -2.28 ± 0.17 | -1.74 ± 0.1
UCCGAGCAAUAUUACGUACG | -2.34 ± 0.45 | -3.62 ± 0.47
UCCGAGCAAUAUUACGUCAG | -1.07 ± 0.17 | -3.62 ± 0.24

Sequence | self-splicing fitness (ln) (37 °C) | self-splicing fitness (ln) (30 °C)
UCCGAGCAAUAUUACGUGGG | -2.56 ± 0.26 | -2.8 ± 0.17
UCCGAGCAAUAUUACGUGGU | -2.29 ± 0.21 | -2.83 ± 0.29
UCCGAGCAAUAUUACGUUCA | -3.16 ± 0.4 | -2.55 ± 0.2
UCCUAGCAAUAUUACGAACG | -1.78 ± 0.3 | -1.85 ± 0.2
UCCUAGCAAUAUUACGACGA | 0.868 ± 0.17 | 0.168 ± 0.12
UCCUAGCAAUAUUACGAGGG | -2.7 ± 0.45 | -2.97 ± 0.25
UCCUAGCAAUAUUACGAGUA | -0.911 ± 0.13 | -1.12 ± 0.14
UCCUAGCAAUAUUACGCACU | -0.784 ± 0.12 | -1.17 ± 0.12
UCCUAGCAAUAUUACGCCCA | -0.0863 ± 0.31 | -1.65 ± 0.34
UCCUAGCAAUAUUACGCUAA | -3.02 ± 0.29 | -2.98 ± 0.31
UCCUAGCAAUAUUACGGAAG | -1.23 ± 0.43 | -3.41 ± 0.28
UCCUAGCAAUAUUACGGCGU | -0.557 ± 0.12 | -0.736 ± 0.087
UCCUAGCAAUAUUACGGGUG | 0.124 ± 0.087 | -0.384 ± 0.07
UCCUAGCAAUAUUACGGUAG | -2.28 ± 0.29 | -3.32 ± 0.32
UCCUAGCAAUAUUACGGUGA | 0.225 ± 0.067 | -0.297 ± 0.053
UCCUAGCAAUAUUACGGUGU | -0.222 ± 0.097 | -1.71 ± 0.067
UCCUAGCAAUAUUACGUCCG | -3.81 ± 0.34 | -3.98 ± 0.25
UCCUAGCAAUAUUACGUCGG | -0.128 ± 0.15 | -2.31 ± 0.19
UCCUAGCAAUAUUACGUGCA | -1.72 ± 0.2 | -2.86 ± 0.29
UCCUAGCAAUAUUACGUUCC | -1.72 ± 0.4 | -2.61 ± 0.27
UCGAAGCAAUAUUACGAAGC | -1.84 ± 0.47 | 
UCGAAGCAAUAUUACGACGA | -0.374 ± 0.11 | -0.904 ± 0.12
UCGAAGCAAUAUUACGAUAU | -1.52 ± 0.32 | -2.63 ± 0.31
